{"source": "patent US20130171217A1", "about": "“ENZYMATIC PERACID GENERATION FOR USE IN SKIN CARE PRODUCTS” (E I DU PONT DE NEMOURS AND COMPANY, priority 2010, published 2013)", "molecules": {"B1": {"name": "SEQ ID NO: 323: S54V variant of the aryl esterase from Mycobacterium smegmatis fused to hair binding domain HC263 via a flexible linker (protein)", "chain": "MAKRILCFGDSLTWGWVPVEDGAPTERFAPDVRWTGVLAQQLGADFEVIEEGLVARTTNIDDPTDPRLNGASYLPSCLATHLPLDLVIIMLGTNDTKAYFRRTPLDIALGMSVLVTQVLTSAGGVGTTYPAPKVLVVSPPPLAPMPHPWFQLIFEGGEQKTTELARVYSALASFMKVPFFDAGSVISTDGVDGIHFTEANNRDLGVALAEQVRSLLGPGSGGAGSPGSAGGPGSPSAQSQLPDKHSGLHERAPQRYGPEPEPEPEPIPEPPKEAPVVIEKPKPKPKPKPKPPAHDHKNQKETHQRHAAGSGGGGSPHHHHHH"}, "B2": {"name": "C277S: non-targeted C277S variant of the Thermotoga maritima perhydrolase, un-targeted control (protein, listed as Thermotoga maritima)", "chain": "MAFFDLPLEELKKYRPERYEEKDFDEFWEETLAESEKFPLDPVFERMESHLKTVEAYDVTFSGYRGQRIKGWLLVPKLEEEKLPCVVQYIGYNGGRGFPHDWLFWPSMGYICFVMDTRGQGSGWLKGDTPDYPEGPVDPQYPGFMTRGILDPRTYYYRRVFTDAVRAVEAAASFPQVDQERIVIAGGSQGGGIALAVSALSKKAKALLCDVPFLCHFRRAVQLVDTHPYAEITNFLKTHRDKEEIVFRTLSYFDGVNFAARAKIPALFSVGLMDNISPPSTVFAAYNYYAGPKEIRIYPYNNHEGGGSFQAVEQVKFLKKLFEKG"}}, "key": {"[1]": {"experiment": "PAA generation with different perhydrolases and substrates, HPLC Karst assay", "format": "biochemical", "protocol": "HC1121 is a CE-7 class carbohydrate esterase from Thermotoga maritima (C2775-HC263; SEQ ID NO: 288), and HC1169 is an aryl esterase from M. smegmatis (ArE-HC263; SEQ ID NO: 323). Both enzymes were tested for their perhydrolytic activity with substrates triacetin or propylene glycol diacetate (PGDA, Aldrich 528072) and hydrogen peroxide between pH 5 and pH 7.2. Enzyme free reactions for some reaction conditions were run to determine the non-enzymatic generation of peracetic acid as well. At the end of reaction, the reaction was quenched by acidification 10 or 25 fold with 100 mM H3PO4. The quenched samples were filtered using a NANOSEP® MF centrifugal device (30K Molecular Weight Cutoff (MWCO), Pall Life Sciences, Ann Arbor, Mich., P/N OD030C35) by centrifugation for 6 min at 12,000 rpm. The filtrates were assayed by HPLC Karst assay in duplicates to determine the amount of peracetic acid (PAA) generated at those reaction conditions."}, "[2]": {"experiment": "Two-step treatment of hair tresses, tress tensile strength", "settings": "1500 μg/mL (E/H 6), deposition 5 min, 0.5 M H2O2, 1 M TA, 2 hr/cycle", "protocol": "Medium brown hair was used in these examples. Stock hair swatches were custom made by International Hair Importers (Glendale, N.Y.). Each swatch had 1500 mg of 50% reversed hair, soft glued in the middle with glue thickness of 1 mm and width of 2 cm.\nTest-hair-sample consisted of a hair bundle of approximately 50 mg hair of 4 cm length, held together by a 1 mm thick, 2 mm wide and 5 mm long glue strip. A sheet of BYTAC® (TYPE VF-81, Saint-Gobain Performance Plastics, Wayne, N.J.) was attached to a polystyrene cover-plate, providing a TEFLON®-coated test-surface for mounting and treatment of hair. A strip of double-sided scotch tape was applied on the BYTAC® surface, closer to the top edge of the test plate. The glued side of the test-hair-sample was pressed down on the exposed side of the tape, making sure that the unglued hair strands are completely clear of the tape. The glued parts of the tress and exposed double-sided tape surface were covered with a strip of clear single-sided tape. Although the method is described for a single test-hair-tress, 4 tresses were used for each test condition and were placed side-by-side during the entire treatment.\nThe test tress was wetted by tap water and the excess water was absorbed with a paper towel. The calculated volume of the enzyme formulation was applied and was worked in gently and evenly into hair strands with gloved fingers for ˜30 seconds and let the formulation soak in for the specified deposition time. The tress was then rinsed with tap water agitated through a peristaltic pump for 20 seconds, to completely remove the surfactant.\nExcess water was removed from the wetted tress from the previous step by absorption on a paper towel. The requisite volumes of the substrates (H2O2 and triacetin (TA)) were applied onto the test-tress. The mixture was rubbed into the hair strand firmly and evenly, with gloved finger for ˜1 min. The tress was left semi-covered for the specified treatment time.\nTest-hair was washed with a diluted surfactant solution by rubbing the surfactant into hair with enough vigor to foam, for one minute to remove all traced of oils and residues arising during tress preparation or from previous cycles. Hair was rinsed thoroughly with tap water, agitated through a peristaltic pump for 35 seconds, while gently opening tresses with gloved fingers to ascertain that all adherents (surfactant or moisturizer) are dislodged. Excess moisture was absorbed by pressing down the paper towel over the tress. This would mark the end of one cycle. Treatment cycles were repeated starting from the enzyme-deposition step until the desired number of cycles was reached.\nTwo samples from each experiment were subjected to Tensile assay as described in Example 23, to determine the extent of hair-weakening.\nThe following experiments followed the general method of treatment disclosed in Example 25. Solutions were made in 5% TWEEN®-20 surfactant in 50 mM citrate buffer at pH 6. […] H2O2 and triacetin, formulations were made according to Example 24, in 20% LUBRIDERM® lotion in 50 mM citrate buffer at pH 6. After application of the reagents, the treatment was allowed to continue for 24 hr, as in daily application. TWEEN®-20 (5% in 50 mM citrate buffer at pH 6) was used for the final surfactant wash. The treatment was repeated for 15 additional cycles, 16 days in all.\nThe following experiments followed the general method of treatment disclosed in Example 26, except that after application of the reagents, the treatment was allowed to continue for shorter times per cycle rather than 24 hours per cycle.\nEnzyme solutions were made in 0.5% or 5% TWEEN®-20 surfactant in 50 mM citrate buffer at pH 6. […] H2O2 and triacetin, formulations were made according to Example 24, in 20% LUBRIDERM® lotion (Johnson & Johnson, New Brunswick, N.J.) in 50 mM citrate buffer at pH 6. After application of 400 μL each of the reagents, the treatment was allowed to continue for 20-40 min. […]"}, "[3]": {"experiment": "Retention of perhydrolase on hair detected by hydrolase activity", "format": "binding", "protocol": "For hair binding experiments brown hair tresses (International Hair Importers and Products, Glensdale N.Y.) were used. The hair was washed with 2% SLES, rinsed extensively with deionized water and air dried.\nAround 20 mg of 1 cm brown hair fragments was added in a 1.8-mL microfuge tube. Hydrolase assay buffer (1.2 mL) as added to the hair followed by the addition of the perhydrolase enzymes to the solution. The enzymes were allowed to bind the hair for 30 min with gentle agitation (24 rpm) on an Adams Nutator (model 1105, Becton Dickinson, Franklin Lakes, N.J.). No enzyme controls, with hair and without hair, were included in the binding experiment to account for non-enzymatic hydrolysis of the pNPA hydrolase reagent. After the binding step, a 1.0-mL aliquot of the binding buffer was transferred to a new tube to quantitate the amount of unbound enzyme. Additional binding buffer was removed and the hair fragments were washed 4 times with 1 mL of 1% TWEEN®-20 in hydrolase buffer, followed by 2 washes with 1 mL each in hydrolase buffer. The hair fragments were then resuspended in 1 mL of hydrolase assay and the hydrolase activity that remained bound to the hair was measured. The C277S (“PAH”) variant of Thermotoga maritima perhydrolase (SEQ ID NO: 293) was used as a control for an un-targeted perhydrolase."}}, "data": [{"molecule": "B1", "values": [{"measurement": "PAA", "setting": "[1]; 10 μg/mL enzyme, 250 mM PGDA, 100 mM H2O2, pH 5, 100 mM citrate buffer, 30 min", "result": 4158, "unit": "ppm"}, {"measurement": "PAA", "setting": "[1]; 10 μg/mL enzyme, 250 mM PGDA, 100 mM H2O2, pH 5.6, 100 mM citrate buffer, 30 min", "result": 4482, "unit": "ppm"}, {"measurement": "PAA", "setting": "[1]; 10 μg/mL enzyme, 250 mM PGDA, 100 mM H2O2, pH 6, 100 mM citrate buffer, 30 min", "result": 4647, "unit": "ppm"}, {"measurement": "PAA", "setting": "[1]; 10 μg/mL enzyme, 250 mM PGDA, 100 mM H2O2, pH 6.6, 100 mM phosphate buffer, 30 min", "result": 4608, "unit": "ppm"}, {"measurement": "PAA", "setting": "[1]; 10 μg/mL enzyme, 250 mM PGDA, 100 mM H2O2, pH 7.2, 100 mM phosphate buffer, 30 min", "result": 4450, "unit": "ppm"}, {"measurement": "PAA", "setting": "[1]; 10 μg/mL enzyme, 250 mM triacetin, 100 mM H2O2, 20% LUBRIDERM® in pH 7.2, 100 mM phosphate buffer, 60 min", "result": 3433, "unit": "ppm"}, {"measurement": "PAA", "setting": "[1]; 20 μg/mL enzyme, 250 mM PGDA, 100 mM H2O2, pH 5, 100 mM citrate buffer, 30 min", "result": 4140, "unit": "ppm"}, {"measurement": "PAA", "setting": "[1]; 20 μg/mL enzyme, 250 mM PGDA, 100 mM H2O2, pH 5.6, 100 mM citrate buffer, 30 min", "result": 4403, "unit": "ppm"}, {"measurement": "PAA", "setting": "[1]; 20 μg/mL enzyme, 250 mM PGDA, 100 mM H2O2, pH 6, 100 mM citrate buffer, 30 min", "result": 4609, "unit": "ppm"}, {"measurement": "PAA", "setting": "[1]; 20 μg/mL enzyme, 250 mM PGDA, 100 mM H2O2, pH 6.6, 100 mM phosphate buffer, 30 min", "result": 4526, "unit": "ppm"}, {"measurement": "PAA", "setting": "[1]; 20 μg/mL enzyme, 250 mM PGDA, 100 mM H2O2, pH 7.2, 100 mM phosphate buffer, 30 min", "result": 4726, "unit": "ppm"}, {"measurement": "PAA", "setting": "[1]; 20 μg/mL enzyme, 250 mM triacetin, 100 mM H2O2, pH 5, 100 mM citrate buffer, 30 min", "result": 3680, "unit": "ppm"}, {"measurement": "PAA", "setting": "[1]; 20 μg/mL enzyme, 250 mM triacetin, 100 mM H2O2, pH 5.6, 100 mM citrate buffer, 30 min", "result": 4429, "unit": "ppm"}, {"measurement": "PAA", "setting": "[1]; 20 μg/mL enzyme, 250 mM triacetin, 100 mM H2O2, pH 6, 100 mM citrate buffer, 30 min", "result": 4616, "unit": "ppm"}, {"measurement": "PAA", "setting": "[1]; 20 μg/mL enzyme, 250 mM triacetin, 100 mM H2O2, pH 6.6, 100 mM phosphate buffer, 30 min", "result": 4488, "unit": "ppm"}, {"measurement": "PAA", "setting": "[1]; 20 μg/mL enzyme, 250 mM triacetin, 100 mM H2O2, pH 7.2, 100 mM phosphate buffer, 30 min", "result": 4812, "unit": "ppm"}, {"measurement": "TS", "setting": "[2]", "result": 0.28, "unit": "N/mgH"}]}, {"molecule": "B2", "values": [{"measurement": "Activity in the first TWEEN®-20 wash", "setting": "[3]; hydrolase activity, 1% TWEEN®-20", "result": 5, "unit": "%"}, {"measurement": "Activity retained on hair after 4 TWEEN® 20 washes", "setting": "[3]; hydrolase activity, 4 washes 1% TWEEN®-20 and 2 buffer washes", "result": 1, "unit": "%"}, {"measurement": "Activity unbound", "setting": "[3]; hydrolase activity, ~20 mg hair, binding 30 min", "result": 103, "unit": "%"}, {"measurement": "100% activity (hydrolase activity added to the tube)", "setting": "[3]; tube containing ~20 mg of hair, not subjected to washes", "result": 148, "unit": "µmol/min"}, {"measurement": "TS", "setting": "[2]", "result": 2.84, "unit": "N/mgH"}]}]}
